From the supplement of paper PMC9112550, “Optimization of the antimicrobial peptide Bac7 by deep mutational scanning” (BMC Biology, 2022) come the findings set out here.

The data set deals with Escherichia coli TOP10. Nature of the data set: shrunken log2 fold change of peptide-encoding DNA abundance (4.5 h post-induction vs induction); higher = less antimicrobial activity (less host growth inhibition). To be noted: time post-induction: 4.5 h; library: site-saturation at positions 5, 18, 19, 20.
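Also: peptides expressed intracellularly from a pBAD plasmid library in pooled LB shake-flask culture, induced with 0.3% L-arabinose, DNA abundance read by NGS, three biological replicates, DESeq2 with apeglm shrinkage.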

Regarding RRIRIRPPRLPRPRPRPNLAPRP, the “shrunken log2 fold change” value is -0.114.
As for RRIRYRPPRLPRPRPRPNIMPRP, the figure is -1.42.
With RRIRARPPRLPRPRPRPEYIPRP, the “shrunken log2 fold change” value turned out to be 0.0332.
With RRIRMRPPRLPRPRPRPKPIPRP, the “shrunken log2 fold change” value worked out at 0.32.
As for RRIRDRPPRLPRPRPRPMLYPRP, the figure is -0.0839.
Next, RRIRIRPPRLPRPRPRPDRKPRP: -0.0167.
Next, RRIRNRPPRLPRPRPRPKITPRP: -0.367.
Regarding RRIRPRPPRLPRPRPRPTHQPRP, the “shrunken log2 fold change” value turned out to be 0.615.
As for RRIRWRPPRLPRPRPRPFWAPRP, the figure is 0.274.
RRIRPRPPRLPRPRPRPPHKPRP: the “shrunken log2 fold change” value worked out at 0.452.
As to RRIRNRPPRLPRPRPRPQLKPRP, the “shrunken log2 fold change” value is -0.0663.
Next, RRIRLRPPRLPRPRPRPDPLPRP: 0.172; RRIRLRPPRLPRPRPRPPVYPRP: 0.0309; RRIRMRPPRLPRPRPRPSYHPRP: -0.402.
Next, RRIRRRPPRLPRPRPRPYPFPRP: -0.238.
In the case of RRIRIRPPRLPRPRPRPFEIPRP, the “shrunken log2 fold change” value is -0.0373.
Next, RRIRYRPPRLPRPRPRPFRFPRP: -0.83.
As for RRIRSRPPRLPRPRPRPYRTPRP, the figure is 0.00951; as for RRIRIRPPRLPRPRPRPHLQPRP, -0.343; as for RRIRDRPPRLPRPRPRPNWKPRP, -0.0238.
Next, RRIRIRPPRLPRPRPRPKAWPRP: 0.0719.
On to RRIRVRPPRLPRPRPRPREIPRP, for which the “shrunken log2 fold change” value turned out to be 0.087.
Next, RRIRNRPPRLPRPRPRPVKQPRP: 0.00788; RRIRGRPPRLPRPRPRPAKIPRP: 0.226; RRIRVRPPRLPRPRPRPDTHPRP: -0.214.
Consider RRIRERPPRLPRPRPRPMIPPRP, for which the “shrunken log2 fold change” value is -0.0272.
Next, RRIRVRPPRLPRPRPRPHDDPRP: -0.162; RRIRTRPPRLPRPRPRPVMFPRP: 0.32; RRIRDRPPRLPRPRPRPVKVPRP: -0.0343.
As to RRIRDRPPRLPRPRPRPESNPRP, the “shrunken log2 fold change” value was 0.892.
RRIRKRPPRLPRPRPRPCKPPRP: the “shrunken log2 fold change” value is -0.00919.
Next, RRIRRRPPRLPRPRPRPISEPRP: 0.00118.
As for RRIRHRPPRLPRPRPRPGDSPRP, the figure is -0.53; as for RRIRARPPRLPRPRPRPWRGPRP, 0.39.
As for RRIRVRPPRLPRPRPRPRAGPRP, the figure is 0.488; as for RRIRYRPPRLPRPRPRPCFVPRP, -1.09; as for RRIRFRPPRLPRPRPRPVPCPRP, 0.0335.
On to RRIRGRPPRLPRPRPRPKTDPRP, for which the “shrunken log2 fold change” value was 0.797.
Next, RRIRKRPPRLPRPRPRPVMWPRP: -0.221.
For the sequence RRIRVRPPRLPRPRPRPKWIPRP, the “shrunken log2 fold change” value is -0.114.
On to RRIRWRPPRLPRPRPRPIVCPRP, for which the “shrunken log2 fold change” value came out at 0.0105.
As to RRIRFRPPRLPRPRPRPVAVPRP, the “shrunken log2 fold change” value came to 0.105.
RRIRHRPPRLPRPRPRPRQLPRP: the “shrunken log2 fold change” value turned out to be 0.0862.
For the sequence RRIRLRPPRLPRPRPRPSSGPRP, the “shrunken log2 fold change” value amounted to 0.131.
Next, RRIRKRPPRLPRPRPRPCDHPRP: 0.0248; RRIRERPPRLPRPRPRPNHKPRP: -0.823.
Turning to RRIRQRPPRLPRPRPRPMFFPRP, the “shrunken log2 fold change” value was -0.0364.
In the case of RRIRSRPPRLPRPRPRPMSCPRP, the “shrunken log2 fold change” value is -0.067.
Next, RRIRFRPPRLPRPRPRPNFTPRP: -0.0305; RRIRLRPPRLPRPRPRPILVPRP: -0.157.
